Source: article PMC7870846, “Incorporation of sensing modalities into de novo designed fluorescence-activating proteins” (Nature Communications, 2021)

Key:
[1] = target: BCL2; set-up: method as in PMID 27805565; settings: read-out: dissociation constant (Kd); cited from earlier work
[2] = set-up: method as in PMID 30209393; settings: read-out: Kd for the phenolate form of DFHBI; cited from earlier work
[3] = with DFHBI; cited from earlier work
[4] = Photophysical characterization: absorbance, excitation/emission spectra, extinction coefficients, quantum yields; type: physicochemical
Method: Protein preparation: mFAP2a, mFAP2b, and mFAP10 were produced by large-scale protein purification and SEC purification, and dialyzed overnight into DPBS that was adjusted to pH 7.40 using NaOH.
Chromophore preparation: DFHBI (Lucerna) and DFHBI-1T (Lucerna) were dissolved to 20.0 mM in 100% DMSO, and diluted in DPBS (pH 7.40) to measure absorbances on a Jasco V-750 spectrophotometer at peak absorbance wavelengths (417 nm for DFHBI and 422 nm for DFHBI-1T). Following background subtraction of identical buffer without chromophore, Beer’s Law was used to calculate the molar chromophore concentrations of the stock solutions using previously reported extinction coefficients.
Preparation of protein–chromophore complexes: For quantum yield measurements, 1.00 μM, 836 nM, or 919 nM chromophore solutions in DPBS (pH 7.40) at 4.00 mL final volumes were prepared for the following eight conditions: DFHBI only, DFHBI-1T only, 43.5 µM 6xHis-mFAP10 with DFHBI, 43.5 µM 6xHis-mFAP10 with DFHBI-1T, 134 μM 6xHis-mFAP2a with DFHBI, 134 μM 6xHis-mFAP2a with DFHBI-1T, 206 μM 6xHis-mFAP2b with DFHBI, and 206 μM 6xHis-mFAP2b with DFHBI-1T.
Extinction coefficients: Absorbance spectra of protein–chromophore complexes were first measured with a Thermo Scientific BioMate 3S UV–Vis Spectrophotometer (1 nm interval, 800 nm min^−1). The extinction coefficients were then calculated using Beer’s Law:12 A=ε⋅b⋅c, where A is peak absorbance, ε is extinction coefficient, b is path length (1 cm), and c is concentration (1.00 μM, 836 nM, or 919 nM).
Relative quantum yield: A Perkin-Elmer LS-B Luminescence Spectrophotometer (10 nm bandwidth, 1 nm interval, 100 nm min^−1) was used. The fluorescence emission spectra of the protein–chromophore complexes (in DPBS, pH 7.40) and reference dye Acridine Yellow G (in methanol) were first obtained, and the quantum yield was then calculated using the equation[53]:13 ϕc=ϕr⋅1−10^−Ar(λex)/1−10^−Ac(λex)⋅∫Fc(λ)⋅dλ/∫Fr(λ)⋅dλ⋅nc2/nr2, where ϕ is quantum yield, A(λex) is absorbance at the excitation wavelength λex ( λex = 440 nm), F is fluorescence emission, n is refractive index of the solution (1.3350 for DPBS at pH 7.40 and 1.3284 for methanol), and the subscripts “c” and “r” refer to the protein–chromophore complex measured and the reference dye, respectively. […]
Absolute quantum yield: An integrating sphere instrument (Hamamatsu C9920-12) (6 nm excitation bandwidth, 1 nm interval) and a high-sensitivity photonic multi-channel analyzer (Hamamatsu C10027-01) were used to measure a light emission spectrum. Absolute quantum yields were measured for solutions of protein–chromophore complexes in DPBS (pH 7.40) in which ≥95% of the total chromophore was occupying the protein-binding pocket (Table 1). […]

[5] = In vitro chromophore titration with DFHBI (fluorescence, single-binding site isotherm fit)
Method: Fluorescence endpoints were measured on a Synergy Neo2 hybrid multi-mode reader (BioTek) in flat bottom, black polystyrene, non-binding surface 96-well microplates (Corning 3650). In measuring chromophore-binding affinities (Fig. 1d, e), mFAP2, mFAP2a, and mFAP2b, and mFAP10 were produced by large-scale protein purification and SEC purification. Proteins were aliquoted in eight technical replicates in 200 μL final volumes to 20.0 nM final concentration in ten serial dilutions ( 10 dilution factor) of DFHBI starting from 31.6 μM DFHBI or 31.6 μM DFHBI-1T final concentrations, including an eleventh condition without chromophore. Fluorescence was excited at λex = 468 nm and fluorescence emission measured at λem = 530 nm. Background fluorescence endpoints of wells with identical chromophore concentrations but purified protein replaced with an identical volume of high-salt Tev cleavage buffer were measured, and fluorescence endpoints subtracted from those measured with protein. Background-subtracted data were averaged and the means normalized from 0 to 1 and fit to a single-binding site isotherm function using non-linear least squares fitting to obtain a fitted Kd value (Table 1), and the fit scaled to the maximum mean value (Fig. 1d, e).

[6] = pH-dependent fluorescence assays (pH titration); type: biochemical; settings: from pH 8.38 to pH 3.63
Method: In measuring pH-dependent fluorescence (Fig. 3d–i), Na2HPO4-citrate buffer supplemented with 150 mM NaCl at unique pH values were produced via mixing various volumes of 100 mM citric acid (Sigma Aldrich), 200 mM Na2HPO4 (Sigma Aldrich), and 2.00 M NaCl, and final pHs quantified via an Accumet AB15 Basic pH meter (Fisher Scientific). pHRed and pHluorin2 were produced via large-scale protein purification, 6xHis-tag removal and size-exclusion chromatography (SEC) purification, and mFAP_pH and mFAP2b were produced via large-scale protein purification and SEC purification. pH-dependent fluorescence was measured at […] final protein concentration for mFAP2b, mFAP_pH and pHRed, and 170 nM final concentration for pHluorin2, at each pH in technical triplicate in 200 μL final volumes per well. […] In measuring fluorescence excitation spectra at each pH (Fig. 3d), excitation wavelengths were set to the range λex = 300–530 nm and fluorescence emission measured at λem = 562 nm. In measuring pH-dependent fluorescence excitation spectra at pH 3.76 and pH 7.34 (Fig. 3f, g), excitation spectra were measured using excitation wavelengths in the range λex = 300–540 nm and emission wavelength λem = 592 nm. […]

B1: aBCL2: designed binding partner of BCL2 (protein)
chain: GADPKKVLDKAKDEAENRVRELKQRLEELYKEARKLDLTQEMRQELVDKARAASLQANGDIFYAILRALAEAEKLKKAGLVNSQQLDELKRRLEELAEEARRKAEKLRDEFRLKLEYG
Kd [1]: 0.8 ± 0.5 nM

B2: mFAP2: previously reported mini-fluorescence-activating protein, initial design (protein)
chain: SRAAQLLPGTWQVTMTNEDGQTSQGQMHFQPRSPYTMDVVAQGTISDGRPISGYGKVTVKTPDTLDVDITYPSLGNIKAQGQITMDSPTQFKFDATTKGAGNFTGRLTGTLQRQE
Kd [2]: ~180 nM
absolute fluorescence quantum yield (ϕc) [3]: 2.1%
brighter fluorescence with DFHBI-1T than DFHBI [4]: ~ 2.7 fold
higher affinity for DFHBI than DFHBI-1T [5]: ~ 30 fold

B3: mFAP_pH: particularly pH-responsive variant (protein)
chain: SRAAQLLPGTWQVTMTNEDGQTSQGQMHFQPRSPYTMDIVAQGTISDGRPIVGYGKATVKTPDTLDIDITYPSLGNIKAQGQITMDSPTQFKFDATTKGENDFHGRLTGTLQRQE
fold-change in ratiometric fluorescence (Fratio) [6]: ~ 250 fold
